Results from IntAct's records for PubMed 18469807.

How the values were obtained:
unc5b_human UNC5B [1] = target: unc5b_human UNC5B (UniProt Q8IZJ1)
unc5b_human UNC5B [2] = target: unc5b_human UNC5B (UniProt Q8IZJ1); remark: listed apart in the source

Sequence of unc5b_human UNC5B (Q8IZJ1 whole entry): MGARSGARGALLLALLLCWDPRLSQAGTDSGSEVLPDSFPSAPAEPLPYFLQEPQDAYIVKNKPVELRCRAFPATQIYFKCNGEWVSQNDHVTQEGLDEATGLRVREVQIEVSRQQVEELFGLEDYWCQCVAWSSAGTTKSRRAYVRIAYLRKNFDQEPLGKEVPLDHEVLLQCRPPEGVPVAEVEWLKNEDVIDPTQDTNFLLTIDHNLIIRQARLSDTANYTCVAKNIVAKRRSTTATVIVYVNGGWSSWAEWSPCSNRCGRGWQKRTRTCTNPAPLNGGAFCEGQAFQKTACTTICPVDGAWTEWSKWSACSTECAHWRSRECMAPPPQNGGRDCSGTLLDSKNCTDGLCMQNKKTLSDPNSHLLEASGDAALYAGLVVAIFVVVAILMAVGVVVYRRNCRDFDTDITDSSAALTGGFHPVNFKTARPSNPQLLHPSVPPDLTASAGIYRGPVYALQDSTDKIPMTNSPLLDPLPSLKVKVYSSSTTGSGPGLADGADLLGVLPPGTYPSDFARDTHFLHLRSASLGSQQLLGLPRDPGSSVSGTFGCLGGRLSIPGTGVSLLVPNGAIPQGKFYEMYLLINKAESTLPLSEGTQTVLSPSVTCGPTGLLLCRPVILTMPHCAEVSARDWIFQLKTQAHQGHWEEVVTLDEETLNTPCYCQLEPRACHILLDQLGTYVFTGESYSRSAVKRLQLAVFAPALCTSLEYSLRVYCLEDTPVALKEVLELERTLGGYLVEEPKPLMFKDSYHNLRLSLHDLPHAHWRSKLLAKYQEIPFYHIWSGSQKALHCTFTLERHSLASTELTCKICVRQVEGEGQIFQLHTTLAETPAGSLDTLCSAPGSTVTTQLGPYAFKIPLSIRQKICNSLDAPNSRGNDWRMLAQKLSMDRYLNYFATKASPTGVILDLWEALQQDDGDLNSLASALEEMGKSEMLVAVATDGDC

“Arf-GAP with GTPase, ANK repeat and PH domain-containing protein 2 (Rattus norvegicus (Rat)), Q8CGU4 K413A;S414N” was tested, and the “effect of a mutation on the interaction” value (unc5b_human UNC5B [1]) was “disrupting interaction”.

With “Arf-GAP with GTPase, ANK repeat and PH domain-containing protein 2 (Rattus norvegicus (Rat)), Q8CGU4 Y1032F” the “effect of a mutation on the interaction” value (unc5b_human UNC5B [2]) was “disrupting interaction”.

For “Arf-GAP with GTPase, ANK repeat and PH domain-containing protein 2 (Rattus norvegicus (Rat)), Q8CGU4 Y1032F;Y1124F”, the “effect of a mutation on the interaction” value (unc5b_human UNC5B [2]) was “disrupting interaction”.

“Arf-GAP with GTPase, ANK repeat and PH domain-containing protein 2 (Rattus norvegicus (Rat)), Q8CGU4 Y1124F” was tested, and the “effect of a mutation on the interaction” value (unc5b_human UNC5B [2]) was “disrupting interaction”.
